From the nanobody polyreactivity screen of Harvey et al. (2022)

Experiment: yeast display, Sf9 membrane polyspecificity reagent, FACS + sequencing; frameworks hold sequencing errors
Method in brief: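 In a synthetic yeast display library (Saccharomyces cerevisiae BJ5465), nanobody expression was induced with galactose for 36–48 hours. FACS gates were set low and high (top ~1%) using anti-HA fluorescence for expression and streptavidin fluorescence for binding of the Sf9 membrane reagent. Each polyreactivity label is drawn from the gate of origin.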

QVQLVESGGGIVQAGGSLRLSCAASGFTFGSYAMGWYRQAPGKEREFVAAIRRSGSSTYYADSVKGRFTISRDNAKNTVYLQMNSLKPEDTAVYYCAADVYRRLRRYRYYYWGQGTQVTVSS
polyreactivity (PSR sort gate): low polyreactivity

QVQLVESRGGLVQAGGSLRLSFAASGFTFGSYSMVWYRQAPGKERELVADITRRGDNTYYADSVKGRFTISRDNAKNTVYLQMNSLKPEDSAVYYCNAAKGGRYPDYDYWGQGTQVTVSS
polyreactivity (PSR sort gate): high polyreactivity

QVQLVESGGGLVQAGGSLRLSCAASGFIFSWYAMGWYRQAPGKERELVATISSSGGRTHYADSVKGRFTISRDNAKNTVYLQMNSLKPEDTAVYYCAAQPFSYFTTVYYWGQGTQVTVSS
polyreactivity (PSR sort gate): high polyreactivity

QVQLVESGGGLVQAGGSLRLSCAASGSTISYYAMGWYIQAPGKERELVAAISQTGGTTYYADSVKGRFTISRDNAKNTVYLQMNSLKPEDTAVYYCNAARPGGHYWGQGTQVTVSS
polyreactivity (PSR sort gate): low polyreactivity

QVQLVESGGGLVQAGGSLRLSCASSGRIFRSYAMGWYRQAPGKERELVAAISSGGGSTYYADSVKGRFTISRDNAKNTVYLQMNSLKPEDTAVYYCNTDFYYDDVSQAHDYWGQGTQVTVSS
polyreactivity (PSR sort gate): high polyreactivity

QVQLVASGGGLVQAGGSLRLSCAATGSIFYINTMGWYRQAPGKERELVAAINFSDGRTYYADSVMGRFTISRDNAKNTVYLQIHSLKPEDTAVYYCAADVYPSEYDYWGQGTQVTVSS
polyreactivity (PSR sort gate): low polyreactivity

QVQLVESGGGLVQAGGSLRLSCAASGRTYTGYGMGWSRQAPGKERELVAAITWRGDRTYYADSVKGRFTISRDNAKNTVYLQMNSLKPEDTAVYYCNKLGRIQYDYWGQGTQVTVSS
polyreactivity (PSR sort gate): high polyreactivity

QVQLVESGGGLVQAGGSLRLSCAASGRTFVPNAMGWYRQAPGKERELVAAISDSGGSTYYADSVKGRFTISRDNAKNTVYLQMNSLKPEDTAVYYCATDGTTYVGWEHGFNYWGQGTQVTVSS
polyreactivity (PSR sort gate): low polyreactivity

QVQLVESGGGLVQAGGSLRLSCAASGGIFGKYVMGWYRQAPGKERELVAGISRSAGITYYADSVKGRFTISRDNAKHTVYLQMNSLIPEDTAVYYCNARAWSYPSYHVGYDYWGQGTQVTVSS
polyreactivity (PSR sort gate): high polyreactivity

QVQLVESGGGLVQAGGSLRLSCAASGYTYPYYTMGWYRQAPGKERELVAAISSGGRTKYADSVKGRFTISRDNAKNTVYLQMNSLKPEDTAVYYCAKSGNYRTGRFDYWGQGTQVTVSS
polyreactivity (PSR sort gate): high polyreactivity

QVQLVESGGGLVQAGGSLRLSCAASGSIFSFYAVGWYRQAPGKERELVAALSSGGSTYYADSVKGRFTISGDNAKNTVYLQMNSLIPEDTAVYYCAADPYRYNFRAYGWYREGYYWGQGTQVTVSS
polyreactivity (PSR sort gate): low polyreactivity

QVQLVESGGGLVQAGGSLRLSCAASGSILSFNAMGWYRQAPGKERELVAAISRGGSTNYADSVKGRFTISRDNAKNTVYLQMNSLKPEDTAVYYCAAVQYRYSTRWARRAYDYWGQGTQVTVSS
polyreactivity (PSR sort gate): high polyreactivity

QVQLVESRGGLVQAGGSLRLSCAASGFIFDKYAMGWYRQAPGKERELVATITSGGSTYYADSVKGRFTISRDNAKNTVYLQMNSLKPEDTAVYYCAALDYGYRWYRYYYWGQGTQVTVSS
polyreactivity (PSR sort gate): high polyreactivity

QVQLVESGGGLVQAGGSLRLSCAASGRTFYKNAMGWYRQAPGKEREFVASISVSGGRTYYADSVKGRFTISRDNAKNTVYLQMNSLKPEDTAVYYCNARASPLSQRDYWGQGTQVTVSS
polyreactivity (PSR sort gate): low polyreactivity

QDQLVESGGALVQAGRSLRLSCAASGIIYIYYAMGWYIQAPGKERELVAAISGSGDSTYYADSVKGRFTISRDNAKNTVYLQMNSLKPEDTAVYYCARRSPNPYSIYYYWGQGTQVTVSS
polyreactivity (PSR sort gate): high polyreactivity

QVQLVESGGGLVQAGGSLRLSCAASGRIFDLNAMGWYRQAPGKERELVAAISYSGDRTYYADSVKGRFTISRDNAKNTVYLQMNSLKPEDTAVYYCNVRKTWYGYSVTGRYDYWGQGTQVTVSS
polyreactivity (PSR sort gate): low polyreactivity

QVQLLESGGGLVQAGGSLRLSCAASGSTLARYTMGWSRQAPGKERELVATIDFGGVNTYYADSVKGRFTISRDNAKNTVYLQMNSLKPEDTAVYYCAVDNPFIWFFGPDEYWGQGTQVTVSS
polyreactivity (PSR sort gate): low polyreactivity

QVQLEVSAGGLVQAGGSLRLSCAASGSTFGYYAMGWYRQAPGKEWELVAAITSGASTNYSDSVKGRFTISRDNAKNSVYLQMNSLKPEDTAVYYCAAGFQTRTPLNEFDYWGQGTQVTVSS
polyreactivity (PSR sort gate): low polyreactivity

QVQLVESGGGLVQAGGSLRLSCAASGRTFYKYAMGWYRQAPGKERELVAAISSRGGRTYYADSVKGRFTISRDNAKNTVYLQMNSLKPEDTAVYYCAAKGRPDGKYDYWGQGTQVTVSS
polyreactivity (PSR sort gate): high polyreactivity

QVQLVESGGGLVQAGGSLRLSCAASGSIFSYYAMGWYRQAPGKERELVAAISWSGTSTYYADSVKGRFTISRDNAKNTVYLQMNSLKPEDTAVYYCNAGDNPIFDLGQGTQVTVSS
polyreactivity (PSR sort gate): high polyreactivity

QVQLVESGGGLVQAGGSLRLSCAASGSTLNSYVMGWYRQAPGKERELVATIRSGSSTNYADSVNGRFTISRDNAKNTVYLQMNSLKPEDTAVYYCAADAYSLCYDSWGQGTQVTVSS
polyreactivity (PSR sort gate): low polyreactivity

QVQLVESGGGLVQAGGSLRLSCAASGFTFYYYAKGWYRQAPGKERELVAAINKKGGSTYADSVKGRFTISRDNAKNSVYLQLNSLKPEDTAVYYCYAVLTYTGVGYESWGQGTQVTVSS
polyreactivity (PSR sort gate): high polyreactivity

QVQLVESGGGLVQAGGSLRLSCAASGRILPFNAMGWYRQAPGKERELVATITRRGGSTFYADSVKGRFTMSRDNAKNTVYLQMNSLKPEDTAVYYCAKTYWYVGSSRTYNYWGQGTQVTVSS
polyreactivity (PSR sort gate): high polyreactivity

QVQLVESGGGLVQAGGSLRLSCAASGSTFWYYVMGWYRQAPGKERELVAAIDWTGDSTYYADSVKGRFTISRDNAKNTVYLQMNSLKPVDTAVYYCAAQKYYPYSYYLNNDYWGLGTQVTVSS
polyreactivity (PSR sort gate): low polyreactivity

QVQLVESGGGLFQAGGSLRLSCAASGRIVGLYAMGWYRPAPGKERELVAAISRGGSTNYADSVKGRFTISRDNAKNTVYLQMNSQKPEDPAVYYCNARYVKYYTYLYNYDYWGQGTQVTVSS
polyreactivity (PSR sort gate): high polyreactivity

QVQLVESGGGLVQAGGSLRLSCAASGSTFEGNAMGWYRQAPGKERELVAAINSVAITNYADSVKGRFTISRDNAKNTVYLQMNSLKPEDTAVYYCNAQTNRPWGWPIGYDYWGQGTQVTVSS
polyreactivity (PSR sort gate): low polyreactivity

QVQLVESGGGLVQAGRSLRLSFADSGVIVTSNAMGWYRQAPGKEREFVADITSSDSTYYADSVKGRFTISRDNAKNTVYLQMNSLKPEDTAVYYCAARGTTVRAYGYGFGYWGQGTQVTVSS
polyreactivity (PSR sort gate): low polyreactivity

QVQLVESGGGIVQAGGSLRLSCAASGRIFRINGMGWYRQAPGKEREFVAAITSGGGTYYADSVKGRFTISRDNAKNTVYLQMNSLKAEDTAVFYCAVRRRYGDDYWGHGTQVTVSS
polyreactivity (PSR sort gate): high polyreactivity

QVQLVESGGGLVQAGGSLRLSCAASGRIFYYNAMGWYRPAPGKVRELVAVMTGGGSTNYADSVKGRFTISRDNAKNTVYLQMNSLKPEDTAVYYCAARRAWGTKYHGYDYWGQGTQVTVSS
polyreactivity (PSR sort gate): low polyreactivity

QVQLVESGGGLVHAGGSRRLSCAASGNFFRYYVLGWYRQAPGTERECVAAITSSGGSKYYADSVKGRFTISRDNANNTVYLQMNSLKPEDTAVYYCAKDYWDPGWAEYDFWGQGTQVTVSS
polyreactivity (PSR sort gate): low polyreactivity

QVQLVESGGGLVQAGGSLRLSCAASGRIFGIYAMGWYRHAPGKERELVATITWSGGSTYYADSVKGRFTISRDNAKNTVYLQMNSLKPEDTAVYYCAAYYRQFFGWYDYWGQGTQVTVSS
polyreactivity (PSR sort gate): high polyreactivity

QVQLVESGGALVQAGGSLRLSCAASGTTFHSYPMGWYRQAPGKERELVAAISNGGRTNYADSVNGRFTISRDNAKNTVYLQMNSLKPVDTAVYYCAVRLYRDSSYYYWGQGTQVTVSS
polyreactivity (PSR sort gate): low polyreactivity

QVQLVESGGGLVQAGGSLRLSCAASGFIFSNYAMGWYRQAPGKERELVAAISWSGGNTYYADSVKGRFTISRDNAKNTVYLQMNSLKPEDTAVYYCTRVKAYYRWFLPRYQYNYWGQGTQVTVSS
polyreactivity (PSR sort gate): high polyreactivity

QVQLVESGGGLVQAGGSLRLSCAASGITFTPYALGWSRPAPGKERELVAAISASGGNTYYADSVKGRFTISRDNAKNTVYLQMNSLKPDDTAVYYCAAVVAFATGTYYYWGQGTQVTVSS
polyreactivity (PSR sort gate): high polyreactivity

QVQLVESGGGLVQAGGSLRLSCAASGSNFPHNAMGWYRQAPGKERELVAAITSSGGSTYYADSVKGRFTISRDNAKNTVYLQMNSLKPEDTAVYYCNKGKQRRRYNYWGQGTQVTVSS
polyreactivity (PSR sort gate): high polyreactivity

QVQLGESGGGLVQAGGSLRLRCAASGSTFEFYAMGWYRQAPGKERELVASITSSSGPTYYADSVKGRFTISRDNAKNTVYLQMNSLKPEDTAVFYCAKRPIRYYHLLRGNYWGQGTQVTVSS
polyreactivity (PSR sort gate): low polyreactivity

QVQLVESAGGLVQAGVSRRLSFAASGSIFGDYAMGWYRQAPGTERELVATITWIGGSTYYADSVKGRFTISRDNAKNTVYLQMNSLIPEDTAVYYCAATKYVDVKYYYWGQGTQVTLSS
polyreactivity (PSR sort gate): low polyreactivity

QVQLVESGGGLVQAGGSLRLSCAASGRTFDWYVMGWYRQAPGKERELVATITRDGSTNYADSVKGRFTISRDNAKNTVYLQMNSLKPEDTAVYYCAATVPPLVGYDYWGQGTQVTVSS
polyreactivity (PSR sort gate): low polyreactivity

QVQLVESGGGLVQAGGSLRLSCPASGGTFSFYTMGGYRQSPGKEREWVAAIDSTGRTNYADSVKGRFTISRDYPKNTVYLQMNRLIPEDTAVYYCAAVSPTYPYTFYRYNYWGQGTQVTVSS
polyreactivity (PSR sort gate): low polyreactivity

QDQLVESGGCLVQAGLSLRLSCAASGSTFGPYAMGWYRQAPGKERELVADISGGSTNYADSVKGRFTISRDNAKNTVYLQLNSLKPEDTAFYYCATDDHVETVRRLYGDWGQGTQVTVSS
polyreactivity (PSR sort gate): low polyreactivity

QLQLEESGGGLVQAGGSLRLSCAPSGSILNIYAMGWYRQAPGKERELVAVITSGTNTNYAVSVKGRFTISRDNAKNTVYLQMNSRKPEDTAVYYCNDEKYWWGYEYWGQGTQVTVSS
polyreactivity (PSR sort gate): high polyreactivity

QVQLVESGGGLVQAGGSLRLSCAASGFIFVFNTMGWYRQAPGKERELVAAISVSGDSTYADSVKGRFTISRDNAKNTVYLQMNSLKPEDTAVYYCNAGSTELGWTWELDYWGQGTQVNVSS
polyreactivity (PSR sort gate): high polyreactivity

QVQVVESGGGLVQAGGSLRLSCAASGGTDYYYAMGWYRQAPGKERELFAAITESGGSTYYADSVKARYTISRDNAKTTVYVQMNSLKPEDTAVYYCNADWRRWYIFSYDYWGQGTQVTVSS
polyreactivity (PSR sort gate): low polyreactivity
